The record followed here is patent US20220119522A1 (DENALI THERAPEUTICS, published 2022).

The chains are these.
T1: His-tagged human TREM2 ECD (human, UniProt Q9NZC2 19-172)
T1 construct: Biacore and HDX say only recombinant human TREM2 (ECD); also called recombinant human TREM2; hTREM2
T1 sequence: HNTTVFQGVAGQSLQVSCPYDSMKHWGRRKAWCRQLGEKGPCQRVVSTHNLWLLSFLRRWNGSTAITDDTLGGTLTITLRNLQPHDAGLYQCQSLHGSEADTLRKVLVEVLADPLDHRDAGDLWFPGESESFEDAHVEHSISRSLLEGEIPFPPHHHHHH

T2: human TREM2 on the cell surface (human, UniProt Q9NZC2 19-230)
T2 construct: also called surface TREM2; TREM2 expressed in HEK293-H6 cells
T2 sequence: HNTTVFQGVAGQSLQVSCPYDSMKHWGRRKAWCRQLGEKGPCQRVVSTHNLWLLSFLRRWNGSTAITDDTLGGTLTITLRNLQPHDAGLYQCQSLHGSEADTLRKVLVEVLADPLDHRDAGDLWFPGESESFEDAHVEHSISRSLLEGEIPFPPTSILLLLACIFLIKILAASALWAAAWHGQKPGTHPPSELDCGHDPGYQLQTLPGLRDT

T3: human TREM2 full length stalk region peptide (aa 129-172) (human, biotinylated (site not stated))
T3 construct: also called Human TREM2 peptide (aa 129-172); full-length TREM2 stalk peptide
T3 peptide: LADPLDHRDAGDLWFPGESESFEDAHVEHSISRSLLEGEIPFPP

T4: mouse TREM2 full length stalk region peptide (aa 131-169) (mouse, UniProt Q99NH8 131-169, biotinylated (site not stated))
T4 peptide (looked up): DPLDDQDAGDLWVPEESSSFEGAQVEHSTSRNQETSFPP

T5: human TREM2 truncated stalk peptide (aa 149-163) (human, also: biotinylated (site not given here))
T5 construct: also called Human TREM2 peptide (aa 149-163); truncated stalk peptide containing the ADAM10/17 cleavage site
T5 peptide: SFEDAHVEHSISRSL

B1: CL0020096 (antibody, V domains shown)
VH: QIQLVQSGPELRKPGETVKISCKASGYTFTTYGMSWVKQAPGKGLKWMGWINTYSGLPRHSDDFKGRFAFSLETSASTAYLQINNLKNEDTATYFCAREVYYGSRKTAWFAYWGQGTLVTVSA
VL: DLVMSQSPSSLAVSVGERVTMSCKSSQSLLYSNDQKNYLAWYQQIPGQSPKLLIYWASTRESGVPDRFTGSGSGTDFTLTISSVKAEDLAVYFCQQYYSYPPTFGAGTKLELK
notes: also called Clone CL0020096
B2: CL0020210 (antibody, V domains shown)
VH: B1 VH
VL: B1 VL with V19I, S22T, I54L, S99N
notes: also called Clone CL0020210; CL020210
B3: CL0020195 (antibody, V domains shown)
VH: EVQLVESGGGLVQPGRSMMLSCSASGFTFSNYHMAWVRQAPTTGLEWVASITTGSGNTYYRHSVKGRFTISRDNAKSTLYLQMDSLRSEDTASYYCARRWYGGYEGYYFDYWGQGVMVTVSS
VL: DIQMTQSPSLLSASVGDRVTLSCKAGQNVNNYLAWYQQKLGEAPKLLIYNANILQTGFPSRFSGTGSGTDFTLTISSLQPEDVATYFCQQYNSWTTFGGGTKLELK
notes: also called Clone CL0020195
B4: CL0020205 (antibody, V domains shown)
VH: EVQLQQSGPVLVKPGASVKMSCKASGYTFTDYYVHWVKQSHGKSLEWIGLINPYTGTTSYNQRFRVKATLTVDKSSSTAYMEVNSLTSEDSAVYYCARSRVYYGSSLFAFWGQGTLVTVSA
VL: DIVMTQSPSSLSVSAGEKVTMSCKSSQSLLNSGNQKNYLAWYQQKPGQPPKLLIYGASTRESGVPDRFTGSGSGTDFTLTISSVQAEDLAVYYCQNDHSYPYTFGGGTKLEIK
notes: also called Clone CL0020205
B5: CL0020113 (antibody, V domains shown)
VH: QIQLVQSGPELKKPGESLKISCKASGYTFTDYAMQWVKQAPGKGLQYMGWINTQTGKPTYADDFKERFVFSLETSASTAYLKINNLKNDDMATYLCARSYGGEYNWIAYWGQGTLVTVSS
VL: DIVMTQTPSSQAVSAGEKVTMNCKSSQSLLYNENKKNYLAWYQQKPGQSPKLLIYWASTRESGVPDRFIGSGSGTDFTLTISSVQAEDLAVYYCQQSYNFPPTFGGGTKLELK
notes: also called Clone CL0020113
B6: CL0020120 (antibody, V domains shown)
VH: EVQLQQSGPELVRTGASVKISCRASSYSFTDNYIHWVKQTHGRSLEWIGYISGYTGATSYNQKFKGKATFTVDTSSSTAYMQFNSLTSEDSAVYYCARSTMIAPYGMDYWGQGTSVTVSS
VL: DIVMTQSHKFMSTSVGDRVNITCKASQDVVTAVAWYQQKPGQSPKLLIYWASTRHTGVPDRFTGSGSGTDFTLTISNVQSEDLADYFCQQYSRYPLTFGAGTKLELK
notes: also called Clone CL0020120
B7: CL0020127 (antibody, V domains shown)
VH: EVQLQQSGPVLVKPGASVKMSCKASGYKFTDYYMNWVKQSHGKSLEWIGTINPYSGGISYNQKFKGKATLTVDKSSSTAYMELNSLTSEASAVYYCTRRNWDGRYAMDYWGQGTSVTVSS
VL: B6 VL with N20S, V30S, D85E, R93S, L96F, A100G, L106I
notes: also called Clone CL0020127
B8: CL0020206 (antibody, V domains shown)
VH: B7 VH with K28T, T50I, T69I
VL: B6 VL with N20S, C23Y, V30G, T31S, A51T, R93S, L96F, A100G, L106I
notes: also called Clone CL0020206
B9: CL0020141 (antibody, V domains shown)
VH: EVTLVESGGGLVQPGGSLRLSCATSGFTFTDYYMSWVRQPPGKALEWLGFIRDKANGYTTDYSASVKGRFTISRDNSQNILYLQMNTLRAEDSATYYCSRLLRAQGFAYWGQGTLVTVSA
VL: DIVMSQSPSSLGVSIGEKVIMSCTSGQSLLYSNNQKNYLAWYQQKPGQSPKLLIYWASTRESGVPDRFTGSGSGTDFTLTINSVKAEDLAVYYCQQYYRNPFTFGSGTKLEIK
notes: also called Clone CL0020141

Where a chain is given by its changes, count along the chain named. No end group written: not given here.

The target in the first assay is T1, His-tagged human TREM2 ECD. As to the kind of experiment: SPR (Biacore), antibody captured via anti-human Fab, recombinant TREM2 ECD injected, 1:1 fit. As to the method: Surface plasmon resonance (Biacore™ 8K instrument) was used to measure anti-TREM2 antibody affinities for human and cynomolgus TREM2 ECD. Anti-TREM2 antibodies were captured using Human Fab Capture Kit (GE Healthcare Life Sciences, Catalog No. 28958325) on a Biacore Series S CM5 sensor chip (GE Healthcare Life Sciences, Catalog No. 29149604). Serial 3-fold dilutions of recombinant human or cynomolgus TREM2 were injected at a flow rate of 30 μL/min. Antibody binding was monitored for 300 seconds, followed by monitoring of antibody dissociation for 600+seconds in HBS-EP+ running buffer (GE Healthcare Life Sciences, Catalog No. BR100669). The binding response was corrected by subtracting the RU value from a blank flow cell. A 1:1 Languir model of simultaneous fitting of kₒₙ and koff was used for kinetics analysis.
On the technique in general: Surface plasmon resonance follows binding to a sensor surface in real time, without labels.
In the case of B1, the Kd (in general, a measure of binding affinity in units of concentration) stood at 5.54 nM.

In the case of B2, the dissociation constant Kd came to 6.27 nM.

With B3, the Kd is 25.7 nM.

Turning to B4, the Kd is 1.52 nM.

Regarding B5, the Kd was found to be 7.81 nM.

In the case of B6, the Kd is 4.04 nM.

Consider B7, for which the Kd was 3.37 nM.

As for B8, the Kd is 1.82 nM.

For the molecule B9, the dissociation constant (Kd) was determined as 4.6 nM.

Another assay deals with T2, human TREM2 on the cell surface. Nature of the assay: cell binding, human macrophages, dose titration.
With B1, the EC50 (usually the concentration needed to bring the measured effect to its halfway point) is 14 nM.

Regarding B2, the midpoint of the response, the EC50, lay at 0.9 nM.

Take B3: the EC50 was determined as 1.3 nM.

Molecule B4 yielded an EC50 of 2.1 nM.

The molecule B5 yielded an EC50 of 2.1 nM.

Consider B6, for which the EC50 is 1.6 nM.

For the molecule B7, the EC50 turned out to be 11 nM.

Molecule B8 showed an EC50 of 4.8 nM.

B9 yielded an EC50 of 0.6 nM.

The target in a further assay is T3, human TREM2 full length stalk region …. As to the kind of experiment: ELISA on biotinylated peptide captured by streptavidin; A450 normalised to isotype control. The method, then:
(§1) TREM2 antibodies were evaluated for binding to human and mouse TREM2 stalk region peptides. […] Antibody binding to TREM2 stalk peptides was detected using standard sandwich ELISA. Briefly, a 96-well half-area ELISA plate was coated with streptavidin overnight at 4° C. The following day, biotinylated TREM2 stalk peptides diluted in 1% BSA/PBS were added to the plate and incubated for 1 hour. Antibodies diluted in 1% BSA/PBS were then added and incubated for 1 hour. Antibodies bound to peptide were detected with anti-human kappa-HRP secondary antibody (Bethyl Laboratories, Inc.) diluted in 1% BSA/PBS. Plates were assayed by reaction with a detection reagent (One-step TMB Ultra, Thermo) and measurement of absorbance at 450 nm (A450) by standard spectrophotometry instrumentation (BioTek®). Data are shown as normalized values (fold over background where background=isotype control).
For the molecule B1, the “fold over background (A450)” value amounted to 45 fold.

Consider B2, for which the “fold over background (A450)” value is 50 fold.

Consider B3, for which the “fold over background (A450)” value turned out to be 1.3 fold.

Take B4: the “fold over background (A450)” value came to 1.3 fold.

As for B5, the “fold over background (A450)” value was 47 fold.

For B6, the “fold over background (A450)” value is 1.2 fold.

For B7, the “fold over background (A450)” value was determined as 1.4 fold.

B8: the “fold over background (A450)” value stood at 1.8 fold.

As to B9, the “fold over background (A450)” value worked out at 45 fold.

The target of another assay is T4, mouse TREM2 full length stalk region …. Described as above. The method, then:
as §1
For B1, the “fold over background (A450)” value was 45 fold.

Consider B2, for which the “fold over background (A450)” value stood at 25 fold.

On to B3, for which the “fold over background (A450)” value was found to be 1.1 fold.

Consider B4, for which the “fold over background (A450)” value is 1.1 fold.

As for B6, the “fold over background (A450)” value was determined as 1.2 fold.

For the molecule B7, the “fold over background (A450)” value is 1.3 fold.

For B8, the “fold over background (A450)” value was determined as 1.6 fold.

The target in a further assay is T5, human TREM2 truncated stalk peptide (aa …). Described as above. The method, then: as §1
Turning to B2, the “fold over background (A450)” value worked out at 1.5 fold.

B3: the “fold over background (A450)” value came to 1.1 fold.

B4: the “fold over background (A450)” value was found to be 1.2 fold.

B5: the “fold over background (A450)” value came to 1.4 fold.

Regarding B6, the “fold over background (A450)” value is 1.2 fold.

As to B7, the “fold over background (A450)” value came to 1.2 fold.

For B8, the “fold over background (A450)” value amounted to 1.6 fold.

The target of another assay is T2, human TREM2 on the cell surface. Nature of the assay: cell-based or functional assay.
Take B1: the “NFAT EC50 (nM), plate coated mAb” value came to 16.2 nM; the “Survival EC50 (nM), plate coated mAb, human macrophages” value (shortened to “Survival EC50 (nM), plate coated mAb”) came to 1.8 nM; the “pSyk activation (human macrophages) EC50 (nM)” value (“pSyk activation” below) came to 30.9 nM.

B2: the “NFAT EC50 (nM), plate coated mAb” value was 11.7 nM and the “pSyk activation” value came out at 37.4 nM.

Regarding B3, the “NFAT EC50 (nM), plate coated mAb” value stood at 98.3 nM and the “pSyk activation” value is 12 nM.

With B4, the “NFAT EC50 (nM), plate coated mAb” value came to 67.7 nM; the “Survival EC50 (nM), plate coated mAb” value worked out at 5.7 nM; the “pSyk activation” value amounted to 14.3 nM.

Consider B5, for which the “NFAT EC50 (nM), plate coated mAb” value was 185 nM; the “Survival EC50 (nM), plate coated mAb” value turned out to be 24.8 nM; the “pSyk activation” value amounted to 24.8 nM.

Turning to B6, the “NFAT EC50 (nM), plate coated mAb” value came to 195 nM; the “Survival EC50 (nM), plate coated mAb” value came to 17.8 nM; the “pSyk activation” value turned out to be 24.2 nM.

Take B7: the “NFAT EC50 (nM), plate coated mAb” value came to 20.5 nM and the “pSyk activation” value is 11.9 nM.

For B8, the “NFAT EC50 (nM), plate coated mAb” value was 69.9 nM and the “pSyk activation” value stood at 20.7 nM.

Take B9: the “NFAT EC50 (nM), plate coated mAb” value was found to be 25.5 nM; the “Survival EC50 (nM), plate coated mAb” value came to 2 nM; the “pSyk activation” value worked out at 5.9 nM.
